The record followed here is US20090098106A1 (YEDA RESEARCH AND DEVELOPMENT, published 2009).

B1: HC8 (α7) subunit of the human 20S proteasome (other, UniProt P25788 1-255, looked up)
chain: MSSIGTGYDLSASTFSPDGRVFQVEYAMKAVENSSTAIGIRCKDGVVFGVEKLVLSKLYEEGSNKRLFNVDRHVGMAVAGLLADARSLADIAREEASNFRSNFGYNIPLKHLADRVAMYVHAYTLYSAVRPFGCSFMLGSYSVNDGAQLYMIDPSGVSYGYWGCAIGKARQAAKTEIEKLQMKEMTCRDIVKEVAKIIYIVHDEVKDKAFELELSWVGELTNGRHEIVPKDIREEAEKYAKESLKEEDESDDDNM
notes: Yeast two-hybrid: prey from a human bone marrow library, re-cloned into pGADT7; Co-immunoprecipitation: N-terminal HIS tag and/or C-terminal myc tag (pCDNA3); also called human C8

Experiment [1] addresses T1, NF-κB inducing kinase (NIK), human, full length (human, UniProt Q99558 1-947).
T1 construct: Yeast two-hybrid: cloned into pGBKT7 as bait (fusion partner not spelled out); Co-immunoprecipitation: N-terminal 6 myc tag (pCS3MTNIK) in 293T cells, or His tag in HeLa cells; also called intact NIK; wild type NIK
In words: yeast two-hybrid, β-gal colour, strain SFY526 (bait NIK, prey HC8). The source says:
(§1) Yeast 2 Hybrid Screening Assays: NIK or its deletions were cloned into pGBKT7 vector as bait and the preys were re-cloned into pGADT7 vector for assay in the yeast strain SFY526. The system used for screening was the Matchmaker version III (clontech). The prey was pretransformed human bone marrow library (cat# HY4053AH) pooled from 51 males/females in the age range 22-70. It belongs to a new generation of 2 hybrid libraries that offers high stringent quadruple drop out (QDO) selection along with α-gal assay. Clones growing on plates without LEU, TRP, HIS and ADE were reconfirmed by α-gal assay. Plasmids of the positive clones were prepared by lysis of the yeast cells with detergent and mechanical stress followed by phenol extraction and ethanol precipitation of the DNA. Encoded inserts from the plasmids were amplified by PCR with the primers specific for the library vector pACT2.
(§2) A yeast 2 hybrid screening was effected using intact NIK cDNA (GenBank Accession No. Y10256; SEQ ID NO: 5), NIK-C-terminus (amino acids 624-947 of SEQ ID NO: 5) or NIK-N terminus (amino acids 1-367) as a prey. The most prevalent prey which was found in these screenings was the α7 subunit (HC8) (GenBank Accession No. XM_{—}050947). […]

The target of experiment [2] is T2, NIK-C-terminus (amino acids 624-947 of SEQ ID NO: 5) (human, UniProt Q99558 624-947).
T2 construct: Yeast two-hybrid bait in pGBKT7 (fusion partner not spelled out)
T2 sequence (Q99558 624-947): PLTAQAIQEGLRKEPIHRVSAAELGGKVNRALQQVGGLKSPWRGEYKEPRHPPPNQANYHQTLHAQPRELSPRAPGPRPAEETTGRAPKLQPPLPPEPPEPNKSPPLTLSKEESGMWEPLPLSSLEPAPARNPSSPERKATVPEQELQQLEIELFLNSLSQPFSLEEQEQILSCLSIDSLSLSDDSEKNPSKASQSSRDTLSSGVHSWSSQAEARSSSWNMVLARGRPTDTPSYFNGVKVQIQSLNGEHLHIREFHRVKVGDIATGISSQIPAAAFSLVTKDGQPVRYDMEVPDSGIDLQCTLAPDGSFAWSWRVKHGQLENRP
The experiment is described as follows: yeast two-hybrid, β-gal colour, strain SFY526 (bait NIK-C-ter, prey HC8).
Source text: as §1, §2

The target in a further experiment is T3, TRAF2 (UniProt Q12933 1-501, limits assumed).
T3 sequence (looked up): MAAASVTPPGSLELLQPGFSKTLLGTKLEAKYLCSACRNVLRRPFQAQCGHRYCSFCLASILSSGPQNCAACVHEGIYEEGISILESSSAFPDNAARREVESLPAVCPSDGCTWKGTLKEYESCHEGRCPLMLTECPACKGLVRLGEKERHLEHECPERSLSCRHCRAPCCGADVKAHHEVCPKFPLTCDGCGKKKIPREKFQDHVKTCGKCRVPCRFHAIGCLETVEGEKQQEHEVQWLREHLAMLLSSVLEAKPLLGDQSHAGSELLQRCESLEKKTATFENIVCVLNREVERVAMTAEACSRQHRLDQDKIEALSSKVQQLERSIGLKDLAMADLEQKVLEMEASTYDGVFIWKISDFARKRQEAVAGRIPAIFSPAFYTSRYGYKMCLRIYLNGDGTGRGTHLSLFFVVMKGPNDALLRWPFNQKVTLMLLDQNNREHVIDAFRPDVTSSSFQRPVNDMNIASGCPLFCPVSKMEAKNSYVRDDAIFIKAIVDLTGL
In words: yeast two-hybrid, β-gal colour, strain SFY526.

Experiment [3] deals with B1. In words: yeast two-hybrid, β-gal colour, strain SFY526 (bait NIK-N-ter, prey HC8).
Source text: as §1, §2

Experiment [4] has as its target B1. In words: co-immunoprecipitation from HeLa cells with anti-NIK monoclonal antibody, Western blot. Background: A western blot detects proteins with antibodies after separation by electrophoresis.

As for B1, the binding result in experiment [1] and in experiment [2] was “binds” throughout.

B2: NIK-N terminus (amino acids 1-367) (other)
chain: MAVMEMACPGAPGSAVGQQKELPKPKEKTPPLGKKQSSVYKLEAVEKSPVFCGKWEILNDVITKGTAKEGSEAGPAAISIIAQAECENSQEFSPTFSERIFIAGSKQYSQSESLDQIPNNVAHATEGKMARVCWKGKRRSKARKKRKKKSSKSLAHAGVALAKPLPRTPEQESCTIPVQEDESPLGAPYVRNTPQFTKPLKEPGLGQLCFKQLGEGLRPALPRSELHKLISPLQCLNHVWKLHHPQDGGPLPLPTHPFPYSRLPHPFPFHPLQPWKPHPLESFLGKLACVDSQKPLPDPHLSKLACVDSPKPLPGPHLEPSCLSRGAHEKFSVEEYLVHALQGSVSSSQAHSLTSLAKTWAARGSRS
notes: Yeast two-hybrid bait in pGBKT7
Regarding B2, the binding result in the experiment with TRAF2 is given as “no binding”; in experiment [3], “binds”.

B3: NIK kinase domain (kinase motif, amino acids 400-650) (other)
chain: ATHQLRLGRGSFGEVHRMEDKQTGFQCAVKKVRLEVFRAEELMACAGLTSPRIVPLYGAVREGPWVNIFMELLEGGSLGQLVKEQGCLPEDRALYYLGQALEGLEYLHSRRILHGDVKADNVLLSSDGSHAALCDFGHAVCLQPDGLGKSLLTGDYIPGTETHMAPEVVLGRSCDAKVDVWSSCCMMLHMLNGCHPWTQFFRGPLCLKIASEPPPVREIPPSCAPLTAQAIQEGLRKEPIHRVSAAELGGK
notes: also called kinase motif of NIK
For B3, the binding result in experiment [4] is “no binding”.
